The source of these data is patent publication US20100076060A1.

The target of this test is OX40 (CD134) on mouse lymph node T cells (mouse) (UniProt P47741). In words: cell-based or functional assay.

B1: OX40 agonistic antibody (OX86) (antibody, from another filing, V domains shown)
VH: QVQLKESGPGLVQPSQTLSLTCTVSGFSLTGYNLHWVRQPPGKGLEWMGRMRYDGDTYYNSVLKSRLSISRDTSKNQVFLKMNSLQTDDTAIYYCTRDGRGDSFDYWGQGVMVTVSS
VL: DIVMTQGALPNPVPSGESASITCRSSQSLVYKDGQTYLNWFLQRPGQSPQLLTYWMSTRASGVSDRFSGSGSGTYFTLKISRVRAEDAGVYYCQQVREYPFTFGSGTKLEIK
Regarding B1, the interferon-gamma secretion (ELISA), after subtracting background of the negative control was found to be 15 pg/mL.
